# Test results: publication PMC12167477, “Setdb1 and Atf7IP form a hetero-trimeric complex that blocks Setdb1 nuclear export” (The Journal of Biological Chemistry, 2025)
# B1: biotinylated Avitag-MBP-Atf7IP(574-666) (domain or fragment, human, UniProt Q6VMQ6 574-666, looked up)
# chain: EEEYEAEFQVKITAKGDINQKLQKVIQWLLEEKLCALQCAVFDKTLAELKTRVEKIECNKRHKTVLTELQAKIARLTKRFEAAKEDLKKRHEH
# modifications: biotin on the AviTag (cultures supplemented with 40 uM biotin, birA co-expressed)
# notes: The methods describe only the Avitag-MBP form as purified on its own; also called MBP-Atf71P; source: E. coli, co-expressed with birA and biotin, purified (MBPTrap, Superdex 200); not shown: AviTag, N-terminal, kept; MBP, N-terminal, kept
# Tests used:
# [1] = molecular target: B1; experiment: AlphaScreen or HTRF; AlphaScreen His-Detection kit: nickel chelate acceptor beads and streptavidin donor beads; both proteins at 20 nM, or one at 20 nM and the other 0 to 20 nM; 50 mM MOPS, 50 mM CHAPS, 50 mM NaF, 100 ug/ml BSA, pH 7; room temperature; triplicates; settings: both partners purified
# [2] = molecular target: the molecule itself; experiment: SEC; gel filtration of isolated MBP-Atf7IP(574-666) with and without Tween 20 in the buffer
# [3] = molecular target: T1, GST-Setdb1(2-115) (human, UniProt Q15047 2-115); experiment: pull-down; 0.5 uM GST-fusion immobilised on glutathione Sepharose beads; 1.5 uM hCrm1 with or without 4.5 uM RanGTP; with or without pre-incubation with MBP-Atf7IP(574-666) (3-fold or 15-fold excess); 20 mM HEPES 7.4, 110 mM potassium acetate, 2 mM magnesium acetate, 10% glycerol, 2 mM DTT, 0.005% Tween20; Coomassie SDS-PAGE; settings: both partners purified
# T1 construct: source: E. coli, purified (GSTTrap, Superdex 200); not shown: GST, N-terminal, kept
# [4] = molecular target: T2, his-sumo-Setdb1(2-115) (human, UniProt Q15047 2-115); experiment: AlphaScreen or HTRF; AlphaScreen His-Detection kit: nickel chelate acceptor beads and streptavidin donor beads; both proteins at 20 nM, or one at 20 nM and the other 0 to 20 nM; 50 mM MOPS, 50 mM CHAPS, 50 mM NaF, 100 ug/ml BSA, pH 7; room temperature; triplicates; settings: both partners purified
# T2 construct: also called his-sumo-Setdb1(2-114); source: E. coli (BL21DE3 or Rosetta2), purified (HisTrap, dialysis); not shown: His6, N-terminal, kept; SUMO, N-terminal, kept
# [5] = molecular target: the molecule itself; experiment: native MS; co-expressed and purified MBP-Setdb1(2-115)/his-sumo-Atf7IP(574-666) complex, 500 nM, 400 mM ammonium acetate pH 7.9, 1 mM DTT; Q Exactive UHMR; HCD fragmentation
# [6] = molecular target: T3, MBP-Setdb1(2-115) (human, UniProt Q15047 2-115); experiment: SEC-MALS; co-expressed and purified complex, about 400 ul at about 1 mg/ml, Superdex 200 Increase 10/300; settings: both partners purified
# T3 construct: The methods list the MBP tag of the vectors as AviTag-Mbp; also called MBP-Setdb1(2-114); not shown: MBP, N-terminal, kept
# [7] = molecular target: the molecule itself; experiment: cross-linking; disulfide cross-linking of MBP-Atf7IP(574-666) with only C631, in isolation; SDS-PAGE with and without BME
# [8] = molecular target: T3, MBP-Setdb1(2-115); experiment: pull-down; three tagged proteins co-expressed in E. coli, complex purified sequentially by the his tag and then the strep tag; SDS-PAGE; settings: partners not purified
binder,measurement,setting,value
"his-sumo-Setdb1(Δα1; residues 35-115) (domain or fragment, human, UniProt Q15047 35-115, looked up, source: E. coli, purified (HisTrap, dialysis); not shown: His6, N-terminal, kept; SUMO, N-terminal, kept) ISMEELRHFIDEELEKMDCVQQRKKQLAELETWVIQKESEVAHVDQLFDDASRAVTNCESLVKDFYSKLGLQYRDSSSEDE","binding, percent of WT",[1],~80 % of WT
B1,binding result,[2],binds
same,binding result,[3],binds
same,binding result,[4],binds
"his-sumo-Atf7IP(574-666) (domain or fragment, human, UniProt Q6VMQ6 574-666, looked up, not shown: His6, N-terminal, kept; SUMO, N-terminal, kept) EEEYEAEFQVKITAKGDINQKLQKVIQWLLEEKLCALQCAVFDKTLAELKTRVEKIECNKRHKTVLTELQAKIARLTKRFEAAKEDLKKRHEH",binding result,[5],binds
same,stoichiometry N,[6],2 Atf7IP per Setdb1
"MBP-Atf7IP(574-666) C608S C612S (domain or fragment, human, UniProt Q6VMQ6 574-666, looked up, The methods name the synthesised vector without the MBP tag on Atf7IP; the results call the protein MBP-Atf7IP; also called Atf7IP(C631); source: also used in isolation; not shown: MBP, N-terminal, kept) EEEYEAEFQVKITAKGDINQKLQKVIQWLLEEKLSALQSAVFDKTLAELKTRVEKIECNKRHKTVLTELQAKIARLTKRFEAAKEDLKKRHEH",binding result,[7],binds
"his-sumo-Setdb1(Δα1-α2; residues 50-115) (domain or fragment, human, UniProt Q15047 50-115, looked up, source: E. coli, purified (HisTrap, dialysis); not shown: His6, N-terminal, kept; SUMO, N-terminal, kept) KMDCVQQRKKQLAELETWVIQKESEVAHVDQLFDDASRAVTNCESLVKDFYSKLGLQYRDSSSEDE","binding, percent of WT",[1],~30 % of WT
"Atf7IP2(297-388), his-sumo- or Strep-tagged (domain or fragment, UniProt Q5U623 297-388, looked up, Atf7IP2, coiled coil region, residues 297-388; Two differently tagged copies of one fragment, written as one molecule; in the mixed trimer with Atf7IP only the Strep-tagged copy was there; also called his-sumo-Atf7IP2(297-388); Strep-Atf7IP2(297-388); not shown: His6-SUMO (one copy) or Strep (the other copy), N-terminal, kept) MKTSEQINENICVSLERQTAFLEQVRHLIQQEIYSINYELFDKKLKELNQRIGKTECRNKHEGIADKLLAKIAKLQRRIKTVLLFQRNCLKP",stoichiometry N,[8],2 Atf7IP2 per Setdb1
